Test results reported in article doi:10.1101/2023.05.22.541748 (bioRxiv, 2023).

Biological target: ubiquitin (wild type, Q40Ub) (UniProt P0CG48 1-76)
Assay: NMR chemical shift perturbations of the conjugate against the free proteins

binding result: binds
B1: Ubc13 C87K/K92T/K94Q (enzyme)
chain: MAGLPRRIIKETQRLLAEPVPGIKAEPDESNARYFHVVIAGPQDSPFEGGTFKLELFLPEEYPMAAPKVRFMTKIYHPNVDKLGRIKLDILTDQWSPALQIRTVLLSIQALLSAPNPDDPLANDVAEQWKTNEAQAIETARAWTRLYAMNNI
